Among the data in publication PMC4700671 are stoichiometry N, percent dimer and percent tetramer values, retold here.

Several values for one entry are separate records, joined by “and”; a condition that tells them apart may be missing. Identical values can stand only once.

Test [1] has as its target myristoylated MMTV MA (matrix protein of mouse mammary tumor virus), wild type, with C-terminal His-tag (mouse mammary tumor virus) (UniProt P10258). As to the kind of experiment: AUC; sedimentation velocity, protein at 0.5 mg/mL in 50 mM Na2HPO4, 300 mM NaCl, 2.5 mM TCEP, pH 6.0; 50,000 rpm, 4 °C; absorbance at 280 nm; c(s) continuous size distribution; monomer to dimer.

Test [2] has the same target. As to the kind of experiment: AUC; sedimentation velocity, protein at 5.0 mg/mL in 50 mM Na2HPO4, 300 mM NaCl, 2.5 mM TCEP, pH 6.0; 50,000 rpm, 4 °C; absorbance at 250 nm; c(s) continuous size distribution; monomer to dimer (and tetramer).
For test [3], the target named is myristoylated MMTV MA triple mutant L11N/F12N/V15N, with C-terminal His-tag (mouse mammary tumor virus) (UniProt P10258). Nature of the test: AUC; sedimentation velocity, protein at 0.5 mg/mL in 50 mM Na2HPO4, 300 mM NaCl, 2.5 mM TCEP, pH 6.0; 50,000 rpm, 4 °C; absorbance at 280 nm; c(s) continuous size distribution; monomer to dimer.
For test [4] the target is unchanged. Nature of the test: AUC; sedimentation velocity, protein at 5.0 mg/mL in 50 mM Na2HPO4, 300 mM NaCl, 2.5 mM TCEP, pH 6.0; 50,000 rpm, 4 °C; absorbance at 250 nm; c(s) continuous size distribution; monomer to dimer (and tetramer).
The target in test [5] is nonmyristoylated MMTV MA (matrix protein of mouse mammary tumor virus), wild type, with C-terminal His-tag (mouse mammary tumor virus) (UniProt P10258). The description is as above.

What is called stoichiometry N is a count of units in the complex or per binding partner. Substance “myristoylated MMTV MA (matrix protein of mouse mammary tumor virus), wild type, with C-terminal His-tag (from UniProt P10258 2-92) (domain or fragment)” had a stoichiometry N in test [1] of 2. In addition, in test [2], the percent dimer worked out at 98%; the percent tetramer was found to be 2%; the stoichiometry N is 2 and 4.

On to “myristoylated MMTV MA triple mutant L11N/F12N/V15N, with C-terminal His-tag (from UniProt P10258 2-92) (domain or fragment)”, for which the percent dimer in test [3] was 48%. Further, the stoichiometry N in test [3] and in test [4] was 2 throughout.

For “nonmyristoylated MMTV MA (matrix protein of mouse mammary tumor virus), wild type, with C-terminal His-tag (from UniProt P10258 2-92) (domain or fragment)”, in test [5], the percent dimer turned out to be 26% and the stoichiometry N was 2.
